The values below are quoted from earlier work in article PMC4209448 (Scientific Reports, 2014).

For this series the following is noted: C57BL/6 mice.

Turning to “Aβ(1–40): amyloid-β(1–40) peptide whose CSF-to-blood efflux half-time is quoted from the literature”, the “Half-time of efflux from the CSF to blood” value is 34.63 ± 3.6 min.
